Measurements as given in US20050058639A1 (AstraZeneca / MedImmune, published 2005).
Where a chain is given by its changes, count along the chain named.

B1: anti-MCP-1 mAb 3.2 (antibody, V domains shown)
VH: QVQLVQSGAEVKKPGASVKVSCKVSGYTLSELSMHWVRQAPGKGLEWMGGFDPEDGEIIHAQKFQGRVTMTEDTSTDTAYMELSSLRSEDTAVYYCATGDFWSGYYLDWWGQGTLVTVSS
VL: EIVMMQSPATLSVSPGERATLSCRASQSVNSNLAWYQQKPGQAPRLLINGASTRATGIPARFSGSGSGTEFTLTISSLQSEDFAIYYCQQYNDWPTFTFGGGTKVEINR
notes: also called 3.2 (neat)
B2: anti-MCP-1 mAb 1.1.1 (antibody, human IgG2, kappa, V domains shown)
VH: QVQLVQSGAEVKKPGASVKVSCKVSGYTLTELSMHWVRQAPGNGLEWMGGFDPEDGETIYAQRFQGRVVMTEDPSTDTAYMELSSLRSEDTAVYYCATNEFWSGYFDYWGQGTLVTVSS
VL: DIVMTQSPDSLAMSLGERATINCKSSQSVLYSSNNKNYLVWYQQKPGQPPKLLIYWASIRESGVPDRFSSSGSETDFTLTISSLQAEDVAVYYCQQYFSSPWTFGQGTKVEIKR
B3: anti-MCP-1 mAb 1.5.1 (antibody, V domains shown)
VH: B2 VH with N43K, G56D, R63K, V69T, P74T, Y95F, E100D, Y108C, G110D
VL: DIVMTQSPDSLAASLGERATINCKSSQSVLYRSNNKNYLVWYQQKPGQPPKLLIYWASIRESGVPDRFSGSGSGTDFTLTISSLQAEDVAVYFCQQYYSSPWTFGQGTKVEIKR
B4: anti-MCP-1 mAb 1.6.1 (antibody, V domains shown)
VH: QVQLVQSGAEVKKPGASVKVSCKVSGYTLTELSMHWVRQAPGKGLEWMGGFDPEDGETIYAQKFQGRVTMTEDTSTDTAYMELSSLRSEDTAVYYCATWYSGIYLAFDIWGQGTMVTVSS
VL: EIVLTQSPDFQSVTPKEKVTITCRASQSIGSSLHWYQQKPDQSPKLLIKYASQSFSGVPSRFSGSGSGTDFTLTINSLEAEDAATYYCHQSSSLPHTFGGGTKVEIKR

target: T1, human monocyte chemo-attractant protein-1 (MCP-1) (human, UniProt P13500 24-99); assay: ELISA, coated antigen
T1 construct: 76-residue recombinant protein from E. coli, bought (PeproTech); also called hMCP-1(MCAF); human MCP-1
T1 sequence (P13500 24-99): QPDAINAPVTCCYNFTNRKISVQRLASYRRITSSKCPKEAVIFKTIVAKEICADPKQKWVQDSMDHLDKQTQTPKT
Experimental: (§1) Determining cross-reactivity of anti-MCP-1 antibodies with other chemokines. ELISA plates (Fisher Cat. No. 12-565-136) were coated with 50 μl/well of MCP-1, MCP-2, MCP-3, MCP-4, RANTES, GRO-alpha, MIP-1 alpha, eotaxin, rat MCP-1 and mouse JE (2 μg/ml) in coating buffer (0.1 M carbonate buffer, pH 9.6, NaHCO₃ 8.4 g/L, then incubated at 4° C. overnight. After incubation, the plates were washed with washing buffer (0.05% Tween 20 in PBS) three times. 200 μL/well blocking buffer (0.5% BSA, 0.1% Tween 20, 0.01% Thimerosal in 1×PBS) were added and the plates incubated at room temperature for 1 hour. After incubation, the plates were washed with washing buffer three times. 50 μL/well of hybridoma supernatants, and positive and negative controls (positive control was anti-MCP-1 antibody purchased from R&D Sciences, and negative control was an antibody to Keyhole Limpet Hemocyanin produced at Abgenix) were added and the plates incubated at room temperature for 2 hours. After incubation, the plates were washed three times with washing buffer. […] After incubation, the plates were washed three times with washing buffer and 100 μL/well of TMB (BioFX Lab. Cat. #TMSK-0 100-01) was added and the plates allowed to develop for about 10 minutes.

| ELISA OD [OD450] | Binder |
| --- | --- |
| 0.235 | B1 |
| 0.944 | B2 |
| 1.18 | B3 |
| 0.375 | B4 |

target: T2, recombinant mouse JE/MCP-1 (mouse, UniProt P10148 24-148); assay: ELISA, coated antigen
T2 construct: also called rmJE/MCP-1
Experimental: as §1

| ELISA OD [OD450] | Binder |
| --- | --- |
| 0.059 | B1 |
| 0.045 | B2 |
| 0.043 | B3 |
| 0.042 | B4 |

target: rat MCP-1 (rat, UniProt P14844 24-148); assay: ELISA, coated antigen
Sequence (P14844 24-148 limits assumed): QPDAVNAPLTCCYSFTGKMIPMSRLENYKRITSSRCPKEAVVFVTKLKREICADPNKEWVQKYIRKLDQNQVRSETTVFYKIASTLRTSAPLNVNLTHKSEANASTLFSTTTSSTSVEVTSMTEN
Experimental: as §1

| ELISA OD [OD450] | Binder |
| --- | --- |
| 0.07 | B1 |
| 0.051 | B2 |
| 0.045 | B3 |
| 0.062 | B4 |

target: T3, recombinant human MCP-2 (human, UniProt P80075 24-99); assay: ELISA, coated antigen
T3 construct: also called rhMCP-2
T3 sequence (looked up): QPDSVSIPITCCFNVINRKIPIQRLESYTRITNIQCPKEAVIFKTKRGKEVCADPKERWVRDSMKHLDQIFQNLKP
Experimental: as §1

| ELISA OD [OD450] | Binder |
| --- | --- |
| 0.535 | B1 |
| 0.051 | B2 |
| 0.047 | B3 |
| 0.042 | B4 |

target: T4, recombinant human MCP-3 (human, UniProt P80098 24-99); assay: ELISA, coated antigen
T4 construct: also called rhMCP-3
T4 sequence (P80098 24-99 limits assumed): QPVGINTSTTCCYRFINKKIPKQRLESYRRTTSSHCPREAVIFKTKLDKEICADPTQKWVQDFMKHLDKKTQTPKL
Experimental: as §1

| ELISA OD [OD450] | Binder |
| --- | --- |
| 0.449 | B1 |
| 0.064 | B2 |
| 0.069 | B3 |
| 0.046 | B4 |

target: T5, recombinant human MCP-4 (human, UniProt Q99616 24-98, limits assumed); assay: ELISA, coated antigen
T5 construct: also called rhMCP-4
Experimental: as §1

| ELISA OD [OD450] | Binder |
| --- | --- |
| 0.041 | B1 |
| 0.052 | B2 |
| 0.05 | B3 |
| 0.044 | B4 |

target: T6, human GRO/MGSA (human, UniProt P09341 35-107); assay: ELISA, coated antigen
T6 construct: also called hGRO/MGSA; GRO-alpha
T6 sequence (looked up): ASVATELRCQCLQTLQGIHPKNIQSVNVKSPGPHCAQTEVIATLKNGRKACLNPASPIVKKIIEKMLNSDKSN
Experimental: as §1

| ELISA OD [OD450] | Binder |
| --- | --- |
| 0.042 | B1 |
| 0.047 | B2 |
| 0.048 | B3 |
| 0.046 | B4 |

target: T7, human MIP-1-alpha (human, UniProt P10147 24-92, limits assumed); assay: ELISA, coated antigen
T7 construct: also called hMIP-1-alpha
T7 sequence (looked up): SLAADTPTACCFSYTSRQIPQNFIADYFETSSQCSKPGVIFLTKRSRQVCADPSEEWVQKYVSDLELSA
Experimental: as §1

| ELISA OD [OD450] | Binder |
| --- | --- |
| 0.041 | B1 |
| 0.044 | B2 |
| 0.041 | B3 |
| 0.046 | B4 |

target: T8, human RANTES (human, UniProt P13501 24-91); assay: ELISA, coated antigen
T8 construct: also called hRANTES
T8 sequence (looked up): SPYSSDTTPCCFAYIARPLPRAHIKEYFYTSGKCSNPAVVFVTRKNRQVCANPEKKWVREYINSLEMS
Experimental: as §1

| ELISA OD [OD450] | Binder |
| --- | --- |
| 0.043 | B1 |
| 0.044 | B2 |
| 0.049 | B3 |
| 0.046 | B4 |

target: T9, human eotaxin (human, UniProt P51671 24-97); assay: ELISA, coated antigen
T9 construct: also called hEotaxin
Experimental: as §1

| ELISA OD [OD450] | Binder |
| --- | --- |
| 0.194 | B1 |
| 0.042 | B2 |
| 0.043 | B3 |
| 0.042 | B4 |

target: T1, human monocyte chemo-attractant …; assay: cell-based or functional assay

| IC50 Ca++ Flux [µg/mL] | IC50 Chemotaxis [µg/mL] | Binder |
| --- | --- | --- |
| 0.24 | 0.27 | B2 |
| 0.21 | 0.34 | B3 |
| 1 | 12 | B4 |

target: T1, human monocyte chemo-attractant …; assay: ELISA, hybridoma supernatant on coated MCP-1
Experimental: Selection of candidate antibodies for ELISA. After 14 days of culture, hybridoma supernatants were screened for MCP-1-specific monoclonal antibodies. The ELISA plates (Fisher, Cat. No. 12-565-136) were coated with 50 μl/well of MCP-1 (2 μg/mL) in Coating Buffer (0.1 M Carbonate Buffer, pH 9.6, NaHCO₃8.4 g/L), then incubated at 4° C. overnight. After incubation, the plates were washed with Washing Buffer (0.05% Tween 20 in PBS) three times. 200 μl/well Blocking Buffer (0.5% BSA, 0.1% Tween 20, 0.01% Thimerosal in 1× PBS) were added and the plates incubated at room temperature for 1 hour. After incubation, the plates were washed with Washing Buffer three times. 50 μL/well of hybridoma supernatants, and positive and negative controls were added and the plates incubated at room temperature for 2 hours.
The positive control used throughout was XMG2 MCP-1 Group 1, footpad N160-7 and the negative control was XMG2 KLH Group 1, footpad L627-6. After incubation, the plates were washed three times with Washing Buffer. […] In the secondary screen, three sets of samples (positives in first screening) were screened, one set for hIgG detection, one set for hKappa detection, and one set for hlambda detection. After incubation, the plates were washed three times with Washing Buffer. 100 μL/well of TMB (BioFX Lab. Cat. #TMSK-0100-01) were added and the plates allowed to develop for about 10 minutes (until negative control wells barely started to show color), then 50 μL/well stop solution (TMB Stop Solution (BioFX Lab. Cat. #STPR-0100-01) were added and the plates read on an ELISA plate reader at wavelength 450 nm. The OD readings from the positive wells are presented in Table 9.

| ELISA OD-MCP-1 [OD450] | Binder |
| --- | --- |
| 3.96 | B1 |
| 3.64 | B2 |
| 0.51 | B3 |
| 3.92 | B4 |
